Data set [1] concerns extracellular domain of VEGF-R2 (Flk1) fused to the Fc domain of mouse IgG.
The test system of another data set is T1, Ac-RRVR-AMC.
T1 sequence: RRVR

The target of data set [2] is T2, Ac-IEFD-AMC.
T2 chain: XIEFDX
Description: Michaelis-Menten kinetics of fluorogenic tetrapeptide hydrolysis.

The target of data set [3] is T3, Ac-IEPD-AMC.
T3 chain: XIEPDX
The data set is described as above.

The target of data set [4] is T2, Ac-IEFD-AMC.
Data set [5] addresses T3, Ac-IEPD-AMC.
Data set [6] has as its target T4, Ac-IETD-AMC.
T4 chain: XIETDX
Description: Michaelis-Menten kinetics of fluorogenic tetrapeptide hydrolysis.

For data set [7], the target named is T4, Ac-IETD-AMC.
Data set [8] deals with T5, Ac-LEPD-AMC.
T5 chain: XLEPDX

Data set [9] addresses T6, Ac-IKPD-AMC.
T6 chain: XIKPDX
The data set can be described thus: Michaelis-Menten kinetics of fluorogenic tetrapeptide hydrolysis.

In data set [10] the target is T6, Ac-IKPD-AMC.
The target in another data set is T7, Ac-IAPD-ACC.
T7 chain: XIAPDX

The target of data set [11] is T8, Ac-LEFD-AMC.
T8 chain: XLEFDX
Description: Michaelis-Menten kinetics of fluorogenic tetrapeptide hydrolysis.

In data set [12] the target is T5, Ac-LEPD-AMC. Described as above.
Data set [13] concerns the target T8, Ac-LEFD-AMC.
The target of data set [14] is T9, extracellular domain of VEGF-R2 (Flk1) fused to the Fc domain of mouse IgG.
T9 chain: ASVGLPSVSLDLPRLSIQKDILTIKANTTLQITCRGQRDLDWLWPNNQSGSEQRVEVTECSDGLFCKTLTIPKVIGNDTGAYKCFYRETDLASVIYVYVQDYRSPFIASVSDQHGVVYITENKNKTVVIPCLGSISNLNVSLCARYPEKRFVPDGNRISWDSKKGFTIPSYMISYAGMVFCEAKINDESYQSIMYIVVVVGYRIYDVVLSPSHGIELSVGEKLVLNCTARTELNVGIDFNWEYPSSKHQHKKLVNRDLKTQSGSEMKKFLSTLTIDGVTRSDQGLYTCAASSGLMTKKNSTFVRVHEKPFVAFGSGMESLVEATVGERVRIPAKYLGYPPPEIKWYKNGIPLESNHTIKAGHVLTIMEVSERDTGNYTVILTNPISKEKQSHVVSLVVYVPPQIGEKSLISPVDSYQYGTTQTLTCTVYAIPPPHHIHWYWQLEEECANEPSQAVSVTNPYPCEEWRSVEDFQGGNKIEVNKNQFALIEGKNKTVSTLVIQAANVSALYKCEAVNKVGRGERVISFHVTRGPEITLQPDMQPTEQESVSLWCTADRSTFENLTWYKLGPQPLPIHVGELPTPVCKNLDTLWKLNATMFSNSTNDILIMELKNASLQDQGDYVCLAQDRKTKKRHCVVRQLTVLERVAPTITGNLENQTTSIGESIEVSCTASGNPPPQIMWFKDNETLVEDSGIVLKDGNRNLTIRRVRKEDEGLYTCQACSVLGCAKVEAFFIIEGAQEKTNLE

The text below walks through data of patent US20060024289.

Where a chain is given by its changes, count along the chain named. Numbers in names are those of the source. Like-named read-outs stand apart in the source and are kept apart here.

MT-SP1 mutant N175D: the “cleavage of purified VEGFR2-Fc (SDS-PAGE)” value (from here on “cleavage … (SDS-PAGE)”) in data set [1] was “Several mutants (N175D and D217F) cleave the receptor with higher efficiency than wild-type”.

Take “granzyme B mutein CB10 (I99A/N218A/R192M)”: in data set [1], the “cleavage … (SDS-PAGE)” value was “The purified VEGFR2-Fc is efficiently cleaved by wild-type and mutant granzyme B ... None of the protease variants (wild-type or mutant) cleave the Fc domain”; the “in vitro cleavage of soluble Flk1-Fc (gel, FIG. 10)” value (“in vitro cleavage” below) was “Wild-type granzyme B and the listed muteins cleave the VEGFR-Fc receptor”.

As to MT-SP1 mutein CB155 (Y146D/K224F), the “kcat/Km (specificity constant)” value in the data set on Ac-RRVR-AMC was “cut the Ac-RRVR-AMC substrate at 2.2 and 2.3×10^5 M^-1s^-1, respectively”.

Take MT-SP1 mutein CB159 (F99I/L172D/Q175D): in the data set with Ac-RRVR-AMC, the “kcat/Km (specificity constant)” value is “cut the Ac-RRVR-AMC substrate at 2.2 and 2.3×10^5 M^-1s^-1, respectively”; the “preference of RRVR over RQAR substrate (ratio of kcat/Km)” value is recorded as “prefer RRVR to RQAR by greater than 8 fold”.

With “granzyme B mutein CB06 (I99A/N218A/Y174E)”, in data set [1], the “cleavage … (SDS-PAGE)” value is “The purified VEGFR2-Fc is efficiently cleaved by wild-type and mutant granzyme B ... None of the protease variants (wild-type or mutant) cleave the Fc domain”; the “in vitro cleavage” value was “Wild-type granzyme B and the listed muteins cleave the VEGFR-Fc receptor”.

Regarding “granzyme B mutein CB07 (I99A/N218A/Y174D)”, in data set [1], the “cleavage … (SDS-PAGE)” value was “The purified VEGFR2-Fc is efficiently cleaved by wild-type and mutant granzyme B ... None of the protease variants (wild-type or mutant) cleave the Fc domain”; the “in vitro cleavage” value was “Wild-type granzyme B and the listed muteins cleave the VEGFR-Fc receptor”.

On to MT-SP1 mutant D217F, for which the “cleavage … (SDS-PAGE)” value in data set [1] is “Several mutants (N175D and D217F) cleave the receptor with higher efficiency than wild-type”.

As to MT-SP1 mutein CB18 (L172D), the “cleavage … (SDS-PAGE)” value in data set [1] is recorded as “The mutant L172D cleaves full-length VEGFR2 but at a reduced rate compared to the wild-type”.

Consider “granzyme B mutein CB02 (I99A/N218A/L171E)”, for which, in [1], the “cleavage … (SDS-PAGE)” value was “The purified VEGFR2-Fc is efficiently cleaved by wild-type and mutant granzyme B ... None of the protease variants (wild-type or mutant) cleave the Fc domain”; the “in vitro cleavage” value is “Wild-type granzyme B and the listed muteins cleave the VEGFR-Fc receptor”.

As to “granzyme B mutein CB05 (I99A/N218A/K172D)”, in [1], the “cleavage … (SDS-PAGE)” value is “The purified VEGFR2-Fc is efficiently cleaved by wild-type and mutant granzyme B ... None of the protease variants (wild-type or mutant) cleave the Fc domain”; the “in vitro cleavage” value was “Wild-type granzyme B and the listed muteins cleave the VEGFR-Fc receptor”.

B1: rat granzyme B I99A (protein)
chain: IIGGHEAKPHSRPYMAYLQIMDEYSGSKKCGGFLIREDFVLTAAHCSGSKINVTLGAHNIKEQEKMQQIIPVVKIIPHPAYNSKTASNDIMLLKLKSKAKRSSAVKPLNLPRRNVKVKPGDVCYVAGWGKLGPMGKYSDTLQEVELTVQEDQKCESYLKNYFDKANEICAGDPKIKRASFRGDSGGPLVCKKVAAGIVSYGQNDGSTPRAFTKVSTFLSWIKKTMKKS
The term Km denotes the concentration of substrate that gives half-maximal velocity. The term kcat denotes the number of substrate molecules converted per active site and unit of time at saturation. Broadly, the kcat/Km is the turnover number divided by the Michaelis constant. As for B1, the results for the Km with Ac-IEFD-AMC [2] and with Ac-IEPD-AMC [3] were 880 µM and 2500 µM, respectively. In addition, the values for the kcat with Ac-IEFD-AMC [4] and with Ac-IEPD-AMC [5] were 0.24 s⁻¹ and 0.14 s⁻¹, respectively. In addition, the figures for the kcat/Km with Ac-IEFD-AMC [4] and with Ac-IEPD-AMC [5] were 270 M⁻¹ s⁻¹ and 57 M⁻¹ s⁻¹, respectively.

B2: rat granzyme B I99F (protein)
chain: B1 chain with A86F
In the case of B2, the Km with Ac-IETD-AMC [6] amounted to 1900 µM; with Ac-IEPD-AMC [3] it was 500 µM. Further, the Kcat in the data set with Ac-IETD-AMC [7] was 0.3 s⁻¹; in the data set with Ac-IEPD-AMC [5], 0.56 s⁻¹. The Kcat/Km came out at 153 M⁻¹ s⁻¹ with Ac-IETD-AMC [7], 410 M⁻¹ s⁻¹ with Ac-IEFD-AMC [4], 200 M⁻¹ s⁻¹ with Ac-LEPD-AMC [8] and 510 M⁻¹ s⁻¹ in the data set with Ac-IEPD-AMC [5]. Moreover, the “specificity constant (kcat/Km)” value with Ac-IEPD-AMC [5] stood at 1100 M⁻¹ s⁻¹.

B3: rat granzyme B N218A (protein)
chain: B1 chain with A86I, N203A
As for B3, the Km amounted to 1800 µM with Ac-IKPD-AMC [9] and 700 µM with Ac-IEPD-AMC [3]. Moreover, the kcat in the data set with Ac-IKPD-AMC [10] worked out at 0.38 s⁻¹; with Ac-IEPD-AMC [5], 1.6 s⁻¹. The values for the kcat/Km with Ac-IKPD-AMC [10] and in the data set with Ac-IEPD-AMC [5] were 220 M⁻¹ s⁻¹ and 2200 M⁻¹ s⁻¹, respectively.

B4: rat granzyme B N218A/R192A (protein)
chain: B1 chain with A86I, R181A, N203A
For B4, the Km in the data set with Ac-IKPD-AMC [9] was > 2000 µM; with Ac-IEPD-AMC [3] it was 1700 µM. For the same molecule, the Kcat/Km with Ac-IKPD-AMC [10] came to 55 M⁻¹ s⁻¹; with Ac-IAPD-ACC, 29 M⁻¹ s⁻¹; with Ac-IEPD-AMC [5], 92 M⁻¹ s⁻¹. This molecule also showed a Kcat with Ac-IEPD-AMC [5] of 0.16 s⁻¹.

B5: rat granzyme B N218A/R192E (protein)
chain: B1 chain with A86I, R181E, N203A
Turning to B5, the Michaelis-Menten constant (Km) with Ac-IKPD-AMC [9] and with Ac-IEPD-AMC [3] was > 2000 µM throughout. Also, the Kcat/Km with Ac-IKPD-AMC [10] was found to be 73 M⁻¹ s⁻¹; in the data set with Ac-IAPD-ACC it was 15 M⁻¹ s⁻¹; in the data set with Ac-IEPD-AMC [5] it was 10 M⁻¹ s⁻¹.

B6: rat granzyme B I99R (protein)
chain: B1 chain with A86R
For B6, the Km in the data set with Ac-IETD-AMC [6] was 2000 µM; with Ac-IEFD-AMC [2], 930 µM and The Km of the P2-Phe substrate (980 µM); in the data set with Ac-IEPD-AMC [3] it was 1800 µM. Also, the Kcat in the data set with Ac-IETD-AMC [7] worked out at 0.3 s⁻¹; with Ac-IEFD-AMC [4], 0.47 s⁻¹; in the data set with Ac-IEPD-AMC [5], 0.59 s⁻¹. The Kcat/Km worked out at 150 M⁻¹ s⁻¹ in the data set with Ac-IETD-AMC [7], 505 M⁻¹ s⁻¹ with Ac-IEFD-AMC [4], 12 M⁻¹ s⁻¹ with Ac-LEPD-AMC [8] and 330 M⁻¹ s⁻¹ with Ac-IEPD-AMC [5]. The kcat result with Ac-IEPD-AMC [5] is “kcat is 0.47 s^-1 and 0.55 s^-1, respectively”.

B7: rat granzyme B I99A/N218A (protein)
chain: B1 chain with N203A
As to B7, the Km is 1300 µM with Ac-LEFD-AMC [11], 890 µM with Ac-IEFD-AMC [2], > 2000 µM with Ac-LEPD-AMC [12] and 2700 µM with Ac-IEPD-AMC [3]. Besides, the kcat was 0.047 s⁻¹ with Ac-LEFD-AMC [13], 0.26 s⁻¹ with Ac-IEFD-AMC [4] and 0.087 s⁻¹ with Ac-IEPD-AMC [5]. Besides, the kcat/Km with Ac-LEFD-AMC [13] came out at 37 M⁻¹ s⁻¹; with Ac-IEFD-AMC [4] it was 290 M⁻¹ s⁻¹; in the data set with Ac-LEPD-AMC [8], 1.3 M⁻¹ s⁻¹; in the data set with Ac-IEPD-AMC [5], 32 M⁻¹ s⁻¹. Moreover, the ΔΔGT^‡ with Ac-LEFD-AMC [13] is -0.09 kcal/mol; with Ac-IEFD-AMC [4] it was -1.33 kcal/mol; with Ac-LEPD-AMC [8], 1.92 kcal/mol; in the data set with Ac-IEPD-AMC [5] it was 0 kcal/mol. Also, in [14], the “cleavage … (SDS-PAGE)” value was “The purified VEGFR2-Fc is efficiently cleaved by wild-type and mutant granzyme B ... None of the protease variants (wild-type or mutant) cleave the Fc domain”. The “in vitro cleavage” value in [14] was “Wild-type granzyme B and the listed muteins cleave the VEGFR-Fc receptor”.

B8: rat granzyme B N218T (protein)
chain: B1 chain with A86I, N203T
In the case of B8, the figures for the Km with Ac-IKPD-AMC [9] and in the data set with Ac-IEPD-AMC [3] were 1800 µM and 580 µM, respectively. For the same molecule, the Kcat is 1.1 s⁻¹ with Ac-IKPD-AMC [10] and 3.6 s⁻¹ in the data set with Ac-IEPD-AMC [5]. Further, the Kcat/Km was found to be 600 M⁻¹ s⁻¹ in the data set with Ac-IKPD-AMC [10] and 6200 M⁻¹ s⁻¹ in the data set with Ac-IEPD-AMC [5].

B9: rat granzyme B Y174A (protein)
chain: B1 chain with A86I, Y161A
Consider B9, for which, in the data set with Ac-IEPD-AMC [3], the Km was 1000 µM. Also, in the data set with Ac-IEPD-AMC [5], the kcat was determined as 0.87 s⁻¹ and the kcat/Km was determined as 470 M⁻¹ s⁻¹.
